Measured values from patent US9284543B2, “Neutral active soluble truncated PH20 polypeptides and uses thereof” (Halozyme, Inc., priority 2008, dated 2016).

B1: SPAM1-ADVK: C-terminally truncated human PH20, precursor 450 aa (SEQ ID NO:43), mature 415 aa (SEQ ID NO:95) (protein, listed as Homo sapiens)
chain: MGVLKFKHIFFRSFVKSSGVSQIVFTFLLIPCCLTLNFRAPPVIPNVPFLWAWNAPSEFCLGKFDEPLDMSLFSFIGSPRINATGQGVTIFYVDRLGYYPYIDSITGVTVNGGIPQKISLQDHLDKAKKDITFYMPVDNLGMAVIDWEEWRPTWARNWKPKDVYKNRSIELVQQQNVQLSLTEATEKAKQEFEKAGKDFLVETIKLGKLLRPNHLWGYYLFPDCYNHHYKKPGYNGSCFNVEIKRNDDLSWLWNESTALYPSIYLNTQQSPVAATLYVRNRVREAIRVSKIPDAKSPLPVFAYTRIVFTDQVLKFLSQDELVYTFGETVALGASGIVIWGTLSIMRSMKSCLLLDNYMETILNPYIINVTLAAKMCSQVLCQEQGVCIRKNWNSSDYLHLNPDNFAIQLEKGGKFTVRGKPTLEDLEQFSEKFYCSCYSTLSCKEKADVK
modifications: HuPH20 precursor 1-450
B2: SPAM1-FYNA: C-terminally truncated human PH20, precursor 484 aa (SEQ ID NO:16), mature 449 aa (SEQ ID NO:68) (protein, listed as Homo sapiens)
chain 1: MGVLKFKHIFFRSFVKSSGVSQIVFTFLLIPCCLTLNFRAPPVIPNVPFLWAWNAPSEFCLGKFDEPLDMSLFSFIGSPRINATGQGVTIFYVDRLGYYPYIDSITGVTVNGGIPQKISLQDHLDKAKKDITFYMPVDNLGMAVIDWEEWRPTWARNWKPKDVYKNRSIELVQQQNVQLSLTEATEKAKQEFEKAGKDFLVETIKLGKLLRPNHLWGYYLFPDCYNHHYKKPGYNGSCFNVEIKRNDDLSWLWNESTALYPSIYLNTQQSPVAATLYVRNRVREAIRVSKIPDAKSPLPVFAYTRIVFTDQVLKFLSQDELVYTFGETVALGASGIVIWGTLSIMRSMKSCLLLDNYMETILNPYIINVTLAAKMCSQVLCQEQGVCIRKNWNSSDYLHLNPDNFAIQLEKGGKFTVRGKPTLEDLEQFSEKFYCSCYSTLSCKEKADVKDTDAVDVCIADGVCIDAFLKPPMETEEPQIFYNA
chain 2: LNFRAPPVIPNVPFLWAWNAPSEFCLGKFDEPLDMSLFSFIGSPRINATGQGVTIFYVDRLGYYPYIDSITGVTVNGGIPQKISLQDHLDKAKKDITFYMPVDNLGMAVIDWEEWRPTWARNWKPKDVYKNRSIELVQQQNVQLSLTEATEKAKQEFEKAGKDFLVETIKLGKLLRPNHLWGYYLFPDCYNHHYKKPGYNGSCFNVEIKRNDDLSWLWNESTALYPSIYLNTQQSPVAATLYVRNRVREAIRVSKIPDAKSPLPVFAYTRIVFTDQVLKFLSQDELVYTFGETVALGASGIVIWGTLSIMRSMKSCLLLDNYMETILNPYIINVTLAAKMCSQVLCQEQGVCIRKNWNSSDYLHLNPDNFAIQLEKGGKFTVRGKPTLEDLEQFSEKFYCSCYSTLSCKEKADVKDTDAVDVCIADGVCIDAFLKPPMETEEPQIFYNA
modifications: HuPH20 precursor 1-484; Mature HuPH20 36-484
B3: SPAM1-IFYN: C-terminally truncated human PH20, precursor 483 aa (SEQ ID NO:17), mature 448 aa (SEQ ID NO:69) (protein, listed as Homo sapiens)
chain 1: MGVLKFKHIFFRSFVKSSGVSQIVFTFLLIPCCLTLNFRAPPVIPNVPFLWAWNAPSEFCLGKFDEPLDMSLFSFIGSPRINATGQGVTIFYVDRLGYYPYIDSITGVTVNGGIPQKISLQDHLDKAKKDITFYMPVDNLGMAVIDWEEWRPTWARNWKPKDVYKNRSIELVQQQNVQLSLTEATEKAKQEFEKAGKDFLVETIKLGKLLRPNHLWGYYLFPDCYNHHYKKPGYNGSCFNVEIKRNDDLSWLWNESTALYPSIYLNTQQSPVAATLYVRNRVREAIRVSKIPDAKSPLPVFAYTRIVFTDQVLKFLSQDELVYTFGETVALGASGIVIWGTLSIMRSMKSCLLLDNYMETILNPYIINVTLAAKMCSQVLCQEQGVCIRKNWNSSDYLHLNPDNFAIQLEKGGKFTVRGKPTLEDLEQFSEKFYCSCYSTLSCKEKADVKDTDAVDVCIADGVCIDAFLKPPMETEEPQIFYN
chain 2: LNFRAPPVIPNVPFLWAWNAPSEFCLGKFDEPLDMSLFSFIGSPRINATGQGVTIFYVDRLGYYPYIDSITGVTVNGGIPQKISLQDHLDKAKKDITFYMPVDNLGMAVIDWEEWRPTWARNWKPKDVYKNRSIELVQQQNVQLSLTEATEKAKQEFEKAGKDFLVETIKLGKLLRPNHLWGYYLFPDCYNHHYKKPGYNGSCFNVEIKRNDDLSWLWNESTALYPSIYLNTQQSPVAATLYVRNRVREAIRVSKIPDAKSPLPVFAYTRIVFTDQVLKFLSQDELVYTFGETVALGASGIVIWGTLSIMRSMKSCLLLDNYMETILNPYIINVTLAAKMCSQVLCQEQGVCIRKNWNSSDYLHLNPDNFAIQLEKGGKFTVRGKPTLEDLEQFSEKFYCSCYSTLSCKEKADVKDTDAVDVCIADGVCIDAFLKPPMETEEPQIFYN
modifications: HuPH20 precursor 1-483; Mature HuPH20 36-483
B4: SPAM1-ASPS: C-terminally truncated human PH20, precursor 487 aa (SEQ ID NO:14), mature 452 aa (SEQ ID NO:66) (protein, listed as Homo sapiens)
chain: MGVLKFKHIFFRSFVKSSGVSQIVFTFLLIPCCLTLNFRAPPVIPNVPFLWAWNAPSEFCLGKFDEPLDMSLFSFIGSPRINATGQGVTIFYVDRLGYYPYIDSITGVTVNGGIPQKISLQDHLDKAKKDITFYMPVDNLGMAVIDWEEWRPTWARNWKPKDVYKNRSIELVQQQNVQLSLTEATEKAKQEFEKAGKDFLVETIKLGKLLRPNHLWGYYLFPDCYNHHYKKPGYNGSCFNVEIKRNDDLSWLWNESTALYPSIYLNTQQSPVAATLYVRNRVREAIRVSKIPDAKSPLPVFAYTRIVFTDQVLKFLSQDELVYTFGETVALGASGIVIWGTLSIMRSMKSCLLLDNYMETILNPYIINVTLAAKMCSQVLCQEQGVCIRKNWNSSDYLHLNPDNFAIQLEKGGKFTVRGKPTLEDLEQFSEKFYCSCYSTLSCKEKADVKDTDAVDVCIADGVCIDAFLKPPMETEEPQIFYNASPS
modifications: HuPH20 precursor 1-487
B5: SPAM1-YNAS: C-terminally truncated human PH20, precursor 485 aa (SEQ ID NO:15), mature 450 aa (SEQ ID NO:67) (protein, listed as Homo sapiens)
chain: LNFRAPPVIPNVPFLWAWNAPSEFCLGKFDEPLDMSLFSFIGSPRINATGQGVTIFYVDRLGYYPYIDSITGVTVNGGIPQKISLQDHLDKAKKDITFYMPVDNLGMAVIDWEEWRPTWARNWKPKDVYKNRSIELVQQQNVQLSLTEATEKAKQEFEKAGKDFLVETIKLGKLLRPNHLWGYYLFPDCYNHHYKKPGYNGSCFNVEIKRNDDLSWLWNESTALYPSIYLNTQQSPVAATLYVRNRVREAIRVSKIPDAKSPLPVFAYTRIVFTDQVLKFLSQDELVYTFGETVALGASGIVIWGTLSIMRSMKSCLLLDNYMETILNPYIINVTLAAKMCSQVLCQEQGVCIRKNWNSSDYLHLNPDNFAIQLEKGGKFTVRGKPTLEDLEQFSEKFYCSCYSTLSCKEKADVKDTDAVDVCIADGVCIDAFLKPPMETEEPQIFYNAS
modifications: mature HuPH20 36-485
B6: SPAM1-VKDT: C-terminally truncated human PH20, precursor 452 aa (SEQ ID NO:42), mature 417 aa (SEQ ID NO:94) (protein, listed as Homo sapiens)
chain 1: MGVLKFKHIFFRSFVKSSGVSQIVFTFLLIPCCLTLNFRAPPVIPNVPFLWAWNAPSEFCLGKFDEPLDMSLFSFIGSPRINATGQGVTIFYVDRLGYYPYIDSITGVTVNGGIPQKISLQDHLDKAKKDITFYMPVDNLGMAVIDWEEWRPTWARNWKPKDVYKNRSIELVQQQNVQLSLTEATEKAKQEFEKAGKDFLVETIKLGKLLRPNHLWGYYLFPDCYNHHYKKPGYNGSCFNVEIKRNDDLSWLWNESTALYPSIYLNTQQSPVAATLYVRNRVREAIRVSKIPDAKSPLPVFAYTRIVFTDQVLKFLSQDELVYTFGETVALGASGIVIWGTLSIMRSMKSCLLLDNYMETILNPYIINVTLAAKMCSQVLCQEQGVCIRKNWNSSDYLHLNPDNFAIQLEKGGKFTVRGKPTLEDLEQFSEKFYCSCYSTLSCKEKADVKDT
chain 2: LNFRAPPVIPNVPFLWAWNAPSEFCLGKFDEPLDMSLFSFIGSPRINATGQGVTIFYVDRLGYYPYIDSITGVTVNGGIPQKISLQDHLDKAKKDITFYMPVDNLGMAVIDWEEWRPTWARNWKPKDVYKNRSIELVQQQNVQLSLTEATEKAKQEFEKAGKDFLVETIKLGKLLRPNHLWGYYLFPDCYNHHYKKPGYNGSCFNVEIKRNDDLSWLWNESTALYPSIYLNTQQSPVAATLYVRNRVREAIRVSKIPDAKSPLPVFAYTRIVFTDQVLKFLSQDELVYTFGETVALGASGIVIWGTLSIMRSMKSCLLLDNYMETILNPYIINVTLAAKMCSQVLCQEQGVCIRKNWNSSDYLHLNPDNFAIQLEKGGKFTVRGKPTLEDLEQFSEKFYCSCYSTLSCKEKADVKDT
modifications: HuPH20 precursor 1-452; Mature HuPH20 36-452

Tested on: CHO-S cells
Test: Western blot analysis of PH20 expression in media and cells after transient expression
Assay type: cell-based, Chinese Hamster
Settings: media versus cells
Procedure, shortened: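 PH20 expression and solubility were judged by anti-PH20 Western blot of non-reduced media and cell fractions, with expression shown by a ~66 kDa band. Samples came from CHO-S cells transiently transfected (GeneJuice) with mutant PH20-HZ24 DNA and cultured 48-72 h. GPI-anchored mutants were cleaved with PI-PLC to release soluble protein.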

Row | Molecule | Expressed in Media
1 | B1 | YES
2 | B2 | YES
3 | B3 | YES
4 | B4 | YES
5 | B5 | YES
6 | B6 | YES

Tested on: not listed separately
Test: Microtiter hyaluronidase activity assay with biotinylated-hyaluronic acid
Assay type: biochemical
Settings: Table 6; 72 hour post transfection supernatant; pH 5.5

Row | Molecule | pH 5.5 Activity
7 | B1 | 0.0405 Units/ml
8 | B2 | 1.262 Units/ml
9 | B3 | 2.3085 Units/ml
10 | B4 | 0.9225 Units/ml
11 | B5 | 1.748 Units/ml
12 | B6 | 0.0225 Units/ml

Same assay, conditions: Table 6; 72 hour post transfection supernatant; pH 7.4

Row | Molecule | pH 7.4 Activity
13 | B1 | 0.063 Units/ml
14 | B2 | 1.4985 Units/ml
15 | B3 | 2.45 Units/ml
16 | B4 | 1.017 Units/ml
17 | B5 | 1.8765 Units/ml
18 | B6 | 0.054 Units/ml

Same assay, conditions: Table 6A; 72 hour post transfection supernatant; pH 5.5

Row | Molecule | pH 5.5 Activity
19 | B4 | 1.580 Units/ml

Same assay, conditions: Table 6A; 72 hour post transfection supernatant; pH 7.4

Row | Molecule | pH 7.4 Activity
20 | B4 | 1.134 Units/ml
